Measurements published in doi:10.1101/2025.06.24.661325, “Structural and functional analysis of the Mycobacterium tuberculosis MmpS5L5 efflux pump presages a pathway to increased bedaquiline resistance” (bioRxiv, 2025).

B1: M. tuberculosis MmpS5 (natural protein)
chain: MIGTLKRAWIPLLILVVVAIAGFTVQRIRTFFGSEGILVTPKVFADDPEPFDPKVVEYEVSGSGSYVNINYLDLDAKPQRIDGAALPWSLTLKTTAPSAAPNILAQGDGTSITCRITVDGEVKDERTATGVDALTYCFVKSA
B2: M. smegmatis acyl carrier protein AcpM (MSMEG_4326) (natural protein)
chain: MAATQEEIIAGLAEIIEEVTGIEPSEVTPEKSFVDDLDIDSLSMVEIAVQTEDKYGVKIPDEDLAGLRTVGDVVAYIQKLEEENPEAAAALREKFAADQ

Experiments:
[1] = target: T1, M. tuberculosis MmpL5 Δ494-688 with C-terminal GFP-FLAG tag (M. tuberculosis, UniProt P9WJV1 1-964, Δ494-688); experiment: co-purification (anti-FLAG affinity, then SEC); settings: partners not purified
T1 construct: also called MmpL5ΔCC; MmpL5 ΔCC

[2] = target: T1, M. tuberculosis MmpL5 Δ494-688 with …; experiment: cryo-EM structure; settings: both partners purified

| Binder | binding result [1] | binding result [2] |
| --- | --- | --- |
| B1 | binds | – |
| B2 | – | binds |
